Reference: patent US5770690, “Bax omega protein and methods” (Neurex Corporation, dated 1998)

Target: T1, Bax-ω GAL4-transactivation domain hybrid (plasmid Bax-ω-GAL424) (yeast; human)
T1 chain: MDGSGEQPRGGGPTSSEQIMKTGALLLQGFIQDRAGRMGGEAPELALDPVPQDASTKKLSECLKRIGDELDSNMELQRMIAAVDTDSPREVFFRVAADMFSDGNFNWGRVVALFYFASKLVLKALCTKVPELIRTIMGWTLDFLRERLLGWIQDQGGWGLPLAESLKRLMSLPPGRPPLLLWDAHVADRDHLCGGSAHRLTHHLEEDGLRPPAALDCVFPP
Assay: yeast two-hybrid: β-galactosidase filter assay (SFY526) and growth in the absence of histidine (HF7C); (-) means white signal / no growth

B1: Bax-ω GAL4-DNA binding domain hybrid (plasmid Bax-ω-pAS1) (other)
chain: MDGSGEQPRGGGPTSSEQIMKTGALLLQGFIQDRAGRMGGEAPELALDPVPQDASTKKLSECLKRIGDELDSNMELQRMIAAVDTDSPREVFFRVAADMFSDGNFNWGRVVALFYFASKLVLKALCTKVPELIRTIMGWTLDFLRERLLGWIQDQGGWGLPLAESLKRLMSLPPGRPPLLLWDAHVADRDHLCGGSAHRLTHHLEEDGLRPPAALDCVFPP
- binding result: no binding
